Data from patent US20120129776A1.

Biological target: MrgX1 (Mas-related G-protein coupled receptor member X1) (UniProt Q96LB2)
Test: cell-based or functional assay

Chain of MrgX1 (Mas-related G-protein coupled receptor member X1) (Q96LB2 whole entry): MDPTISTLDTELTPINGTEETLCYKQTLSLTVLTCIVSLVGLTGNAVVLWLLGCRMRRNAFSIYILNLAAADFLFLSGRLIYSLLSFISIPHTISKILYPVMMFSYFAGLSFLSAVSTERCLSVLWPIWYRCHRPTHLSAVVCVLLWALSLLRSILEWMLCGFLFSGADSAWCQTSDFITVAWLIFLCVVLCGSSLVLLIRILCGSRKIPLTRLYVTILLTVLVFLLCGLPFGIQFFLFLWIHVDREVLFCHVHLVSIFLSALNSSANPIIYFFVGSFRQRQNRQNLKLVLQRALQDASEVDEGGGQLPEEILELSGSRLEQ

EC50 of calcium flux dose response: > 50 nM
Substance: BAM22 (bovine adrenal medulla peptide 22) (from UniProt P01211 206-227)
